Tested on: MS2 coat protein
Assay: apparent KD of MS2 coat protein; designed switch direction (-1 OFF switch, 1 ON switch): -1; higher = weaker reporter binding
Summary of the method: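 SNAP-549-labelled MS2 coat protein was titrated, doubling from 0.7 or 1.5 nM to 3 µM, over designed RNA switches transcribed on Illumina chips by stalled E. coli RNA polymerase. Runs were done without input, with 200 uM small-molecule ligand, or with an oligonucleotide input. Apparent KD is the per-design median over clusters of curve-fitted normalised fluorescence.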

[1] = Eterna round: R95, input ligand: FMN 200 uM
[2] = Eterna round: R95, input ligand: microRNA oligo, concentration not stated
[3] = Eterna round: R95, input ligand: none
[4] = input ligand: microRNA oligo, concentration not stated

Sequence | apparent KD of MS2 coat protein [2] [nM] | apparent KD of MS2 coat protein (input ligand: FMN 200 uM) [nM] | apparent KD of MS2 coat protein (input ligand: none) [nM] | further results
AGAUGGAAGCAGGAUAUGCUUGUAUAAUUGAAAGCAGAAGGGCUAACAUGAGGAUCACCCAUGUAAGAGGUGUA [JR_E6_Sub059] (puzzle: Exclusion 6) | 282 |  |  | apparent KD of MS2 coat protein [1]: 302 nM; apparent KD of MS2 coat protein [3]: 352 nM
AUAAAGUGAGGAUAUAUAAGACACGGUGAUACACCGUGAAAAUAGAAGGUACAUGAGGAUCACCCAUGUUGGGC [Mod of Anonveat 19 - Jieux - Exclusion 4] (Eterna round: R97, puzzle: Exclusion 4) |  | 50.2 | 53.7 | 
ACAAGUUUUUAGAUUCUUAACAUGAGGAUCACCCAUGUGCUCGUCUUGUUGGGCCCGGGCCCGCCGGGCCCGGGCCC (Eterna round: R97, puzzle: Sensor, turn-off variant 1) |  | 60.5 | 72.2 | 
GGAGAGGUAGGAUAUGGAGGUUAAAACAUGAGGAUCACCCAUGUUAAACCUCAUGACCGACUAGAAGGACCAGUCC [AK-MS2ROC-r4-exclusion5-8] (Eterna round: R97, puzzle: Exclusion 5) |  | 15 | 11.1 | 
ACGUAUCAUGUCAGGAUAUAGCUAGCUACGGCUAGCUAGAAGGGACAUGAGGAUCACCCAUGUCAAAGAUACGU (puzzle: Brourd's mod of Exclusion 4) | 13.2 |  |  | 
UCCCGUCUAUGGAGAUUUUACAUGAGGAUCACCCAUGUUGGGACCGCUCUUUGCUUGUCUUCUCCUACUUCGUGUGU [mod-Gracier #4] (Eterna round: R97, puzzle: Sensor, turn-off variant 1) |  | 82.7 | 87.2 | 
UUUGUUUUGCAAGGAUAUGUUUAAUUUUAUUUUCCUUACACAUGAGGAUCACCCAUGUUAUUCUUACAGAAGGUGCGUAAUUUG [Excl-NG2-LRO05] (Eterna round: R96, puzzle: Exclusion NG 2) |  |  |  | apparent KD of MS2 coat protein [4]: 171 nM
GCUCGCUGAGGAUAUACUAAAACACGCUCUGGGAGGUCUUGACUUGAGGAUCACCCAAGUAGAAGGCAGUUAAA [Zaesleeran] (Eterna round: R97, puzzle: Exclusion 2) |  | 437 | 450 | 
UUUUAACAUGAGGAUCACCCAUGUGAGGAUAUCGAUAUUUAUAUUAAUAUUAAUAAAACGAGAAGGCACAUUUU [JMF 7] (puzzle: Exclusion 1) | 65.2 |  |  | 
AUUUUAAUAUAGGAUAUCGAAUUUAUUAUUUAACGAGAAGGAUAAACAUGAGGAUCACCCAUGUGGUAUCAUGG [JMFs Solution 2] (puzzle: Exclusion 6) | 113 |  |  | 
CUCUUGUGAGGAUAUCAGGUGUGCUAGCGUACUGGUACAUCUGAGAAGGCACAUGAGGAUCACCCAUGUUUCAA [Mat - Exclusion 4 - Mod of JL - D41] (puzzle: Exclusion 4) | 52.5 |  |  | 
ACGUGAUAUCUGUCGGUGGACAUGAGGAUCACCCAUGUGAGCUUUUUGCUCGUCUUACAACCCGGUGACAGACCUUC [Bebitier] (puzzle: Sensor v3, turn-off variant 1) | 262 |  |  | apparent KD of MS2 coat protein [1]: 23.6 nM; apparent KD of MS2 coat protein [3]: 21.4 nM
UCACAAGCUGUGGGUGGUGACAUGAGGAUCACCCAUGUUUUGCUCGUCUUGUGCCGGGCCCGGCGCCCGGGCCCGGC [-42.1, -69.5, A 12%] (Eterna round: R97, puzzle: Sensor, turn-off variant 1) |  | 929 |  | 
UACUAAAAGGAGGAUAUCGUAUCGGAAACGAUACGAGAAGGCUUAACAUGAGGAUCACCCAUGUUCUUCAAUAU [Mat - Exclusion 6 - Eli Mod - D92] (puzzle: Exclusion 6) | 16 |  |  | apparent KD of MS2 coat protein [1]: 18.2 nM; apparent KD of MS2 coat protein [3]: 14.8 nM
GGUUAACAUGAGGAUCACCCAUGUGAGGAUAUGUUCAGGAUGAUAAAUAGAAGAGAUAAUAGAAGGCACUUUGG [Bubbles5] (Eterna round: R97, puzzle: Exclusion 1) |  | 57.6 | 39.9 | 
GUGAGCAGACGGAGAUCCAACAUGAGGAUCACCCAUGUCUCACUAGCUUUUUGCUCGUCUUAUCCUCCUCUGUUCAC [Elimod 23 - Jieux - Sensor, turn-off variant 1] (Eterna round: R97, puzzle: Sensor, turn-off variant 1) |  | 16 | 16.2 | 
AGUCAAGAUGAGGAUAUCCGUGUAACAAACGCAGGAGAAGGCGUCACAUGAGGAUCACCCAUGUUGCCUCUAAG [Eternabot (L1) Solution 92] (Eterna round: R97, puzzle: Exclusion 6) |  | 45.9 | 58.1 | 
GGAAGGUCAGGAUAUGCGAGGGAGUGGGAAAUAGGAUGGUAGCAGAAGGGACAUGAGGAUCACCCAUGUUAGGA [JR_Exclu4_Sub0101] (puzzle: Exclusion 4) | 28 |  |  | 

Sequence | apparent KD of MS2 coat protein [2] [nM] | apparent KD of MS2 coat protein (input ligand: FMN 200 uM) [nM] | apparent KD of MS2 coat protein (input ligand: none) [nM] | further results
CUUUUGUGAGGAUAUUAGUAGUAUAUAAUUGGUGAUAUUGCUGAGAAGGCACAUGAGGAUCACCCAUGUACAAC [JR_Ex4_Sub034] (Eterna round: R97, puzzle: Exclusion 4) |  | 369 | 441 | 
GCAGCAUUGUUUACUAACAGUUACAUGAGGAUCACCCAUGUUCAGGAUAUGGUCUGGAUUACAGGCCAGAAGGGAACAAGCUGC [Eli exng3 - 031] (Eterna round: R96, puzzle: Exclusion NG 3) |  | 9.09 | 15 | apparent KD of MS2 coat protein [4]: 9.39 nM
ACAAGCUUUUUGUUCGUCUUAUAAUAAUAAAUAAAUAUAACAUGAGGAUCACCCAUGUUGAGAAGACAACCUCAUGU [Sesor Array 24 - Jieux - Sensor v3, turn-off variant 2] (puzzle: Sensor v3, turn-off variant 2) | 108 |  |  | apparent KD of MS2 coat protein [1]: 242 nM; apparent KD of MS2 coat protein [3]: 420 nM
GGUGCGUUUGUGAGGAUAUGCUGGUCCUUGGAUCAGCAGAAGGCACAUGAGGAUCACCCAUGUGGUGUCGUACC [salish99_Bmod_Ex4_030] (puzzle: Brourd's mod of Exclusion 4) | 273 |  |  | 
UUUCGGCAUGUAGGAUAUGGAUCCGAUUAGGAUUUAGAAGGACAUGAGGAUCACCCAUGUGCAUUUAAUUAGUCAUUACCGUUU [EXclNG1-LROPPY07] (Eterna round: R96, puzzle: Exclusion NG 1) |  | 79.9 | 67.1 | apparent KD of MS2 coat protein [4]: 42.8 nM
GUGUGCUGAGGAUAUACAUAGGAAGAGAAGAGAAGAGAAGGACAUGAGGAUCACCCAUGUAGAAGGCAGAGUGU [Excluse me!! 12 - Jieux - Exclusion 2] (puzzle: Exclusion 2) | 24.5 |  |  | 
AAGUACCGUCACGAUAGUGAUGGUACAACAAGCAUGUAAACAUGAGGAUCACCCAUGUCCUCAAUUGCUCGUCUUAU [Sensor 3 - 68] (puzzle: Sensor v3, turn-off variant 2) | 570 |  |  | apparent KD of MS2 coat protein [1]: 692 nM; apparent KD of MS2 coat protein [3]: 842 nM
GCAGGAUAAGUCAGGAUAUACCUAUGGAUACAUAGGUAGAAGGGACAUGAGGAUCACCCAUGUGACUCACCUGC [Fiskers BMX 4 - 62] (puzzle: Brourd's mod of Exclusion 4) | 27.8 |  |  | apparent KD of MS2 coat protein [1]: 95.6 nM; apparent KD of MS2 coat protein [3]: 27 nM
CGAUAAAGCUGAGGAUAUGAGAAUAGAAAGAAAUCAGAAGGCAGACAUGAGGAUCACCCAUGUGAGUUCUCGAGAUUACAUGGU [Prohibition 46 - Jieux - Exclusion NG 1] (Eterna round: R96, puzzle: Exclusion NG 1) |  |  |  | apparent KD of MS2 coat protein [4]: 112 nM
CCGCUAAUAGGAUAUACAUGAGGAUCACCCAUGUCACUCUUCAUUGGUGUCUCUUCAAGUAGAAGGGUUGCUCA [Atisdi] (puzzle: Exclusion 3) | 28.4 |  |  | 
AUUAUAUAGAUAGGAUAUUGAUUAUUAUUUUAACAUGAGGAUCACCCAUGUAGCCUUAUGUAUAACAAGAAGGAUCAUUUAUUA [Title] (Eterna round: R96, puzzle: Exclusion NG 2) |  |  |  | apparent KD of MS2 coat protein [4]: 137 nM
CUUAAUUGUCACAUGGGUGACAUGAGGAUCACCCAUGUCACAAGCUUUUUGCUCGUCUUAUAAUUAACCCAUGUGAC [Stov1/12-A3] (Eterna round: R97, puzzle: Sensor, turn-off variant 1) |  | 13.7 | 13.3 | 
AAGUACCGUCACGAUAGUGAUGGUACAGCAAGCAUGUAAACAUGAGGAUCACCCAUGUCCUCAAUUGCUCGUCUUAU [Sensor 3 - 70] (puzzle: Sensor v3, turn-off variant 2) | 785 |  |  | apparent KD of MS2 coat protein [1]: 725 nM; apparent KD of MS2 coat protein [3]: 764 nM
CGGUGUAGAGGAUAUACGUGAAUUUUGUUAUAUAAUAAUUUACAUGAGGAUCACCCAUGUAGAAGGCUAUAGCG [JR_Ex2_Sub084] (Eterna round: R97, puzzle: Exclusion 2) |  | 23.4 | 24.2 | 
UGAGCUACAGGAUAUACAAGGCGACCGUGAGGUCGAAGGUUACAUGAGGAUCACCCAUGUAGAAGGGUAGUUCU [Mat - Exclusion 2 - JL Mod - D15] (Eterna round: R97, puzzle: Exclusion 2) |  | 130 | 126 | 
CUGUUUUUCGCAGGAUAUGCUCCUCCAUUAUUUGCAGAAGGGCGUUAAACAUGAGGAUCACCCAUGUAUGGUAAUGACUAUUGC [JR_ExcNG1_Sub066] (Eterna round: R96, puzzle: Exclusion NG 1) |  | 27.4 | 19.6 | apparent KD of MS2 coat protein [4]: 12.6 nM
AACUGGACAGGAUAUGUUCUUGAGCACUUGAGGAUCACCCAAGUCGUCGAGAACUCAGGCACAGAAGGGUUAAUGA [Bera] (Eterna round: R97, puzzle: Exclusion 5) |  | 35.1 | 17.7 | 

— the supplement of paper PMC9170038
